The values that follow come from PMC12272874, “The common homocystinuria-associated P1173L variant of human methionine synthase impairs reductive methylation” (The Journal of Biological Chemistry, 2025).

Assay [1] has as its target T1, P1173L variant of human methionine synthase (MTR), full-length recombinant (human, UniProt Q99707 1-1265, P1173L).
T1 construct: Methionine synthase (MTR), human, full length, clinical missense variant P1173L made from the wild-type pET28-thrombin-MTR construct; Homocystinuria-associated variant that occurs in patients; Same expression and purification as the wild type; Loaded with cob(II)alamin or MeCbl; also called P1173L MTR; P→L; source: E. coli BL21 (DE3), co-expressed with GST-tagged ΔNMMADHC, purified (Ni-NTA, size …)
In words: native gel or EMSA; 15 μM cob(II)alamin-bound wild-type or P1173L MTR mixed with equimolar MTRR in Buffer C (100 mM HEPES, pH 7.4, 150 mM KCl, 10% glycerol), room temperature 5 min; 4–15% gradient gel, 4 °C. To be noted: both partners purified.

For assay [2], the target named is T2, Human methionine synthase (MTR), wild-type, full-length recombinant (human, UniProt Q99707 1-1265).
T2 construct: Methionine synthase (MTR), human, full length, 140.5 kDa; codon-optimised synthetic gene in pET-28 between BamH1 and Xho1, thrombin cleavage site at the N-terminus; Monomer fraction of the size exclusion column was used; Loaded with cob(II)alamin (native gel, stopped-flow, EPR) or MeCbl (native gel with substrates); also called wild-type MTR; WT; source: E. coli BL21 (DE3), co-expressed with …
T2 sequence (Q99707 whole entry): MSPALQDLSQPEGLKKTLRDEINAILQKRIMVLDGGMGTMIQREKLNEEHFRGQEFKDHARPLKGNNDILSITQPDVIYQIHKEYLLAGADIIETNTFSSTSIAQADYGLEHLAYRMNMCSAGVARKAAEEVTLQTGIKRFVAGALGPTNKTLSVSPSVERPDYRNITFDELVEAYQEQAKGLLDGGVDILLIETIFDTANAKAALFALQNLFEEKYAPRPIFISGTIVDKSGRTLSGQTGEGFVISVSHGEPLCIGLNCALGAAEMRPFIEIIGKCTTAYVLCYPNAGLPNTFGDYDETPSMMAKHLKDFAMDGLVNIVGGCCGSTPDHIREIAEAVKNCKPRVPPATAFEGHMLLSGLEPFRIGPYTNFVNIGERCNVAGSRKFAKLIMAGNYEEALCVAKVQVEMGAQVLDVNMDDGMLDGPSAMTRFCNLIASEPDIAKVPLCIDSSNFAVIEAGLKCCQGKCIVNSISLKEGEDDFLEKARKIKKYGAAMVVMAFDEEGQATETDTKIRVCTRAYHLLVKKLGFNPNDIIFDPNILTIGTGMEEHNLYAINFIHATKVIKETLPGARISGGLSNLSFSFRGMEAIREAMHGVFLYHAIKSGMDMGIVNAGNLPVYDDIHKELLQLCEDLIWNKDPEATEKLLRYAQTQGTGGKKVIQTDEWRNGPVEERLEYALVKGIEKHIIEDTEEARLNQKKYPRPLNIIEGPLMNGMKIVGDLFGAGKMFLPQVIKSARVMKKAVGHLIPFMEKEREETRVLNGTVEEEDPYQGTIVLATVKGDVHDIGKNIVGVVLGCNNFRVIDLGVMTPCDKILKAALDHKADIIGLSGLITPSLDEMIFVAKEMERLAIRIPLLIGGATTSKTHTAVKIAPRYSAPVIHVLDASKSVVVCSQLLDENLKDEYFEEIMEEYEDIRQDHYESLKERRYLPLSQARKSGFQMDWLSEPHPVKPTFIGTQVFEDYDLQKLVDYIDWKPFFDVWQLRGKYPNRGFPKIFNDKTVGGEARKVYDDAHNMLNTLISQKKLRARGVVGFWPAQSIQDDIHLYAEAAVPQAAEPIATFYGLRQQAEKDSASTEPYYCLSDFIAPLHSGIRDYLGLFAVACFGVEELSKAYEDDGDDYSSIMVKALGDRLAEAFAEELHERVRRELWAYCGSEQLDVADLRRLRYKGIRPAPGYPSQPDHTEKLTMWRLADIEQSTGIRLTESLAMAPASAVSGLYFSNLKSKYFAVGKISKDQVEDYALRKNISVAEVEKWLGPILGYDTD
Described as above. The note with it: both partners purified.

T1 sequence (Q99707 whole entry P1173L): as the sequence (Q99707 whole entry) above, with P1173L counted along it

B1: Human methionine synthase reductase (MTRR), full-length recombinant (enzyme, UniProt Q9UBK8-2 1-698, looked up)
chain: MRRFLLLYATQQGQAKAIAEEICEQAVVHGFSADLHCISESDKYDLKTETAPLVVVVSTTGTGDPPDTARKFVKEIQNQTLPVDFFAHLRYGLLGLGDSEYTYFCNGGKIIDKRLQELGARHFYDTGHADDCVGLELVVEPWIAGLWPALRKHFRSSRGQEEISGALPVASPASSRTDLVKSELLHIESQVELLRFDDSGRKDSEVLKQNAVNSNQSNVVIEDFESSLTRSVPPLSQASLNIPGLPPEYLQVHLQESLGQEESQVSVTSADPVFQVPISKAVQLTTNDAIKTTLLVELDISNTDFSYQPGDAFSVICPNSDSEVQSLLQRLQLEDKREHCVLLKIKADTKKKGATLPQHIPAGCSLQFIFTWCLEIRAIPKKAFLRALVDYTSDSAEKRRLQELCSKQGAADYSRFVRDACACLLDLLLAFPSCQPPLSLLLEHLPKLQPRPYSCASSSLFHPGKLHFVFNIVEFLSTATTEVLRKGVCTGWLALLVASVLQPNIHASHEDSGKALAPKISISPRTTNSFHLPDDPSIPIIMVGPGTGIAPFIGFLQHREKLQEQHPDGNFGAMWLFFGCRHKDRDYLFRKELRHFLKHGILTHLKVSFSRDAPVGEEEAPAKYVQDNIQLHGQQVARILLQENGHIYVCGDAKNMAKDVHDALVQIISKEVGVEKLEAMKTLATLKEEKRYLQDIWS
notes: Methionine synthase reductase (MTRR), human, full length; purified by the same protocol as ΔCMTRR; source: E. coli BL21(DE3), purified (Glutathione Sepharose 4B, thrombin cleavage, size exclusion chromatography); not shown: GST, N-terminal, cleaved
Turning to B1, the binding result in assay [1] and in assay [2] was “binds” throughout.
